Tests used:
[1] = Rheological properties of peptide solutions and hydrogels after salt ionic strength adjustment; format: physicochemical
Description: Based on the visual observation of the effect of salt ionic strength on the properties of the peptide solutions, the effect on the rheological properties of the peptide solutions after adjusting their ionic strength level with NaCl to 0.7 M (PuraMatrix®), 0.2 M (KLD12) or 0.02 M (IEIK13), which is closely below the critical ionic strength at which each peptide becomes cloudy, was evaluated. If the ionic strength levels with NaCl of peptide solutions are higher than 0.9 M (PuraMatrix®), 0.3 M (KLD12) or 0.03 M (IEIK13), the peptide solution begin phase separation becoming cloudy and weak. The rheological property of PuraMatrix®, KLD12 and IEIK13 solutions was higher after adjusting their ionic strength level with NaCl to 0.7 M (PuraMatrix®), 0.2 M (KLD12) or 0.02 M (IEIK13), The results are shown in FIG. 10 for KLD12 1%, FIG. 11 for IEIK13 1%, and FIG. 12 for PuraMatrix® 1%, respectively. Frequency sweep tests were performed from 1 rad/s to 10 rad/s at 1 Pa.
Based on the results of the effect on the rheological properties of the peptide solutions after adjusting their ionic strength level with NaCl to 0.7 M (PuraMatrix®), 0.2 M (KLD12) or 0.02 M (IEIK13), the effect on the rheological properties of the peptide solution at various salt ionic strengths was evaluated. […] The results are shown in FIG. 13 for PuraMatrix® 1% solution and in FIG. 14 for IEIK13 1% solution. Frequency sweep tests were performed from 1 rad/sec to 10 rad/sec at 1 Pa and the storage modulus at 1 rad/sec was selected for data.
Based on the results of the effect on the rheological properties of the peptide solutions after adjusting their ionic strength levels, the effect on the rheological properties of the peptide hydrogels after DMEM treatment for 10 min was evaluated. […] The results are shown in FIG. 15 for PuraMatrix® 1% hydrogels and in FIG. 16 for IEIK13 1% hydrogels, both after DMEM treatment for 10 min Frequency sweep tests were performed from 1 rad/sec to 10 rad/sec at 1 Pa and the storage modulus at 1 rad/sec was selected for data.
Based on the results of the effect on the rheological properties of the peptide solutions and hydrogels after adjusting their ionic strength levels with NaCl, the effect of various salts (KCl, MgCl2, and CaCl2) was also evaluated. The rheological property of PuraMatrix® solutions increases with ionic strength adjustment at 0.15 M of all the salts. Increases of the rheological property of PuraMatrix® solutions with various salts were not predominantly different. However, increases of the rheological property of PuraMatrix® solutions may vary depending on the salting out constant, K of each salt. Constant K is a constant in Cohen's equation: log S=B−KI, where S is solubility, B is idealized solubility, K is salting out constant, and I is ionic strength. With a higher value of constant K and ionic strength of salts, solubility of the peptide may decrease resulting in strong peptide self-assembly with increased hydrophobic effect and higher rheological properties of the peptide solution. The constant K of NaCl may be higher than the other salts. […] The results are shown in FIG. 17 for PuraMatrix® 1% solution before DMEM treatment, and in FIG. 18 for PuraMatrix® 1% hydrogels after DMEM treatment for 10 min.
In accordance with one or more embodiments, IEIK13, KLD12, and PuraMatrix® may be dissolved both in salt buffer such as NaCl and at an elevated pH level adjusted with alkali salt buffer such as NaOH to keep their salt ionic strength under their critical salt points as well as their pH level to about 2.5˜4.0, so that they may have stiffer properties. With respect to PuraMatrix®, […] and IEIK13, the peptide solutions are still clear with 0.9% NaCl (ionic strength: 0.15 M) at pH 3.4 adjusted with NaOH. […] The effect of salt ionic strength and pH adjustment on the rheological properties of PuraMatrix® 2.5% solution are shown in FIG. 20. […]

[2] = Appearance of 1.5% peptide solutions with various salts at room temperature; format: physicochemical; conditions: for Appearance: IEIK13 solution, room temperature
Description: The effect of salt ionic strength level on the properties of peptide solutions was evaluated to identify optimized salt ionic strength levels for the peptides as described herein. Increasing the salt ionic strength level of PuraMatrix® and other peptides may generally improve its function and mechanical strength for various clinical applications. To adjust the salt ionic strength of the peptide solutions by way of example, various salt buffer solutions including NaCl, KCl, MgCl2, CaCl2 and DPBS (10×) were added to 2 mL of 1.5% peptide solutions.

Q: For “Ile-Glu-Ile-Lys-Ile-Glu-Ile-Lys-Ile-Glu-Ile-Lys-Ile [IEIK13]”, which “appearance of peptide solutions with salt and pH adjustment” value ([1]; 0.9% NaCl (ionic strength: 0.15 M) at pH 3.4 adjusted with NaOH) is on record?
A: Its value is “still clear”.

Q: And the “rheological property of hydrogels after DMEM treatment at various ionic strengths” value ([1]; 1% hydrogels, DMEM treatment for 10 min)?
A: Its value is “did not significantly change with ionic strength adjustment up to 0.025 M, while decreases above 0.03 M”.

Q: What about the “rheological property of 1% solutions at various salt ionic strengths” value ([1]; 1% solution, storage modulus at 1 rad/sec) of the same substance?
A: The value was “increases with ionic strength adjustment up to 0.03 M, while decreases above 0.03 M”.

Q: What about the “ionic strength level with NaCl at which the peptide solution begins phase separation becoming cloudy and weak” value ([1]; NaCl) of the same substance?
A: Its value is over 0.03 M.

Q: What about the “rheological property of solutions after ionic strength adjustment with NaCl” value ([1]; NaCl to 0.7 M (PuraMatrix®), 0.2 M (KLD12) or 0.02 M (IEIK13), 1% solutions) of the same substance?
A: Its value is “higher”.

Q: And the Appearance ([2]; CaCl2 0 M, ionic strength 0 M, conc. 1.5%)?
A: Its Appearance is “Clear, thick gel”.

Q: What about the Appearance ([2]; CaCl2 0.005 M, ionic strength 0.015 M, conc. 1.46%) of the same substance?
A: Its Appearance is “Clear, thick, stiffer gel”.

Q: What about the Appearance ([2]; CaCl2 0.0067 M, ionic strength 0.02 M, conc. 1.45%) of the same substance?
A: The Appearance was “Clear, thick, stiffer gel”.

Q: What about the Appearance ([2]; CaCl2 0.0083 M, ionic strength 0.025 M, conc. 1.44%) of the same substance?
A: The Appearance was “Clear, thick, stiffer gel”.

Q: What about the Appearance ([2]; CaCl2 0.01 M, ionic strength 0.03 M, conc. 1.43%) of the same substance?
A: The Appearance was “Clear, thick, stiffer gel”.

Q: What about the Appearance ([2]; CaCl2 0.0117 M, ionic strength 0.035 M, conc. 1.41%) of the same substance?
A: The Appearance was “Clear, thick, stiffer gel”.

Q: And the Appearance ([2]; CaCl2 0.0133 M, ionic strength 0.04 M, conc. 1.40%)?
A: Its Appearance is “Slightly cloudy, thick, stiffer gel”.

Q: And the Appearance ([2]; CaCl2 0.015 M, ionic strength 0.045 M, conc. 1.39%)?
A: Its Appearance is “Slightly cloudy, thick, stiffer gel”.

Q: What about the Appearance ([2]; CaCl2 0.0167 M, ionic strength 0.05 M, conc. 1.37%) of the same substance?
A: Its Appearance is “Slightly cloudy, brittle gel”.

Q: What about the Appearance ([2]; CaCl2 0.0183 M, ionic strength 0.055 M, conc. 1.36%) of the same substance?
A: Its Appearance is “Cloudy, phase-separated”.

Q: And the Appearance ([2]; KCl 0 M, ionic strength 0 M, conc. 1.5%)?
A: The Appearance was “Clear, thick gel”.

Q: What about the Appearance ([2]; KCl 0.005 M, ionic strength 0.005 M, conc. 1.46%) of the same substance?
A: Its Appearance is “Clear, thick, stiffer gel”.

Q: What about the Appearance ([2]; KCl 0.01 M, ionic strength 0.01 M, conc. 1.43%) of the same substance?
A: Its Appearance is “Clear, thick, stiffer gel”.

Q: And the Appearance ([2]; KCl 0.015 M, ionic strength 0.015 M, conc. 1.39%)?
A: The Appearance was “Clear, thick, stiffer gel”.

Q: What about the Appearance ([2]; KCl 0.02 M, ionic strength 0.02 M, conc. 1.35%) of the same substance?
A: The Appearance was “Clear, thick, stiffer gel”.

Q: And the Appearance ([2]; KCl 0.025 M, ionic strength 0.025 M, conc. 1.31%)?
A: Its Appearance is “Clear, thick, stiffer gel”.

Q: What about the Appearance ([2]; KCl 0.03 M, ionic strength 0.03 M, conc. 1.27%) of the same substance?
A: Its Appearance is “Clear, thick, stiffer gel”.

Q: And the Appearance ([2]; KCl 0.035 M, ionic strength 0.035 M, conc. 1.24%)?
A: The Appearance was “Slightly cloudy, brittle gel”.

Q: What about the Appearance ([2]; KCl 0.04 M, ionic strength 0.04 M, conc. 1.2%) of the same substance?
A: Its Appearance is “Slightly cloudy, brittle”.

Q: And the Appearance ([2]; KCl 0.045 M, ionic strength 0.045 M, conc. 1.16%)?
A: Its Appearance is “Cloudy, phase-separated”.

Q: And the Appearance ([2]; MgCl2 0 M, ionic strength 0 M, conc. 1.5%)?
A: Its Appearance is “Clear, thick gel”.

Q: What about the Appearance ([2]; MgCl2 0.005 M, ionic strength 0.015 M, conc. 1.46%) of the same substance?
A: Its Appearance is “Clear, thick, stiffer gel”.

Q: What about the Appearance ([2]; MgCl2 0.0067 M, ionic strength 0.02 M, conc. 1.45%) of the same substance?
A: The Appearance was “Clear, thick, stiffer gel”.

Q: And the Appearance ([2]; MgCl2 0.0083 M, ionic strength 0.025 M, conc. 1.44%)?
A: Its Appearance is “Clear, thick, stiffer gel”.

Q: And the Appearance ([2]; MgCl2 0.01 M, ionic strength 0.03 M, conc. 1.43%)?
A: The Appearance was “Clear, thick, stiffer gel”.

Q: What about the Appearance ([2]; MgCl2 0.0117 M, ionic strength 0.035 M, conc. 1.41%) of the same substance?
A: Its Appearance is “Clear, thick, stiffer gel”.

Q: And the Appearance ([2]; MgCl2 0.0133 M, ionic strength 0.04 M, conc. 1.40%)?
A: The Appearance was “Slightly cloudy, thick, stiffer gel”.

Q: What about the Appearance ([2]; MgCl2 0.015 M, ionic strength 0.045 M, conc. 1.39%) of the same substance?
A: The Appearance was “Slightly cloudy, stiffer gel”.

Q: What about the Appearance ([2]; MgCl2 0.0167 M, ionic strength 0.05 M, conc. 1.37%) of the same substance?
A: Its Appearance is “Slightly cloudy, brittle gel”.

Q: What about the Appearance ([2]; MgCl2 0.0183 M, ionic strength 0.055 M, conc. 1.36%) of the same substance?
A: The Appearance was “Cloudy, phase-separated”.

Q: And the Appearance ([2]; NaCl 0 M, ionic strength 0 M, conc. 1.5%)?
A: Its Appearance is “Clear, thick gel”.

Q: What about the Appearance ([2]; NaCl 0.005 M, ionic strength 0.005 M, conc. 1.46%) of the same substance?
A: Its Appearance is “Clear, thick, stiffer gel”.

Q: What about the Appearance ([2]; NaCl 0.01 M, ionic strength 0.01 M, conc. 1.43%) of the same substance?
A: The Appearance was “Clear, thick, stiffer gel”.

Q: What about the Appearance ([2]; NaCl 0.015 M, ionic strength 0.015 M, conc. 1.39%) of the same substance?
A: The Appearance was “Clear, thick, stiffer gel”.

Q: And the Appearance ([2]; NaCl 0.02 M, ionic strength 0.02 M, conc. 1.35%)?
A: The Appearance was “Clear, thick, stiffer gel”.

Q: And the Appearance ([2]; NaCl 0.025 M, ionic strength 0.025 M, conc. 1.31%)?
A: The Appearance was “Clear, thick, stiffer gel”.

Q: What about the Appearance ([2]; NaCl 0.03 M, ionic strength 0.03 M, conc. 1.27%) of the same substance?
A: The Appearance was “Slightly cloudy, thick, stiffer gel”.

Q: What about the Appearance ([2]; NaCl 0.035 M, ionic strength 0.035 M, conc. 1.24%) of the same substance?
A: The Appearance was “Slightly cloudy, brittle gel”.

Q: And the Appearance ([2]; NaCl 0.04 M, ionic strength 0.04 M, conc. 1.2%)?
A: Its Appearance is “Cloudy, phase-separated”.

Q: What about the “apparent stiffness on salt ionic strength increase” value ([2]; up to the ionic strength at which solutions stay clear) of the same substance?
A: Its value is “increased”.
